Assay: soluble on expression in E. coli; label from the status in PepcDB or PDB records

Soluble on expression in E. coli, not soluble:
MGSDKIHHHHHHMSTPPVDVCYKVNAPLSSQQFVELLAKTSLGPRRPLDDETAITGMLKHANLLVSAWQGETLVGIARSVTDFHFCCYLSDLAVSDDFQHAGIGKKLIQQTAQQLGKGCKIILLAAPLAVDYYPKLGFEKHNSAWLMAASDLHSEA
MGSDKIHHHHHHMSVEQTYSWLRKAGSIDDLAHYIIPLFSGAEKKNWKGILGHLQHHGMFKNIKEGIQTVSKLKEKGFYGHIQKEEQYLKNKWQGPDVPIVTLPVDERNRRIRLEFGSKSGLAFQDKMFLFLSSDLDFGSVSALMTHEYHHVCRLGHLTKEEKDVTLLDTIIMEGLAEYAVYERFGRSQTAEWTTWYTPEQLQALYEKKIAPHRDIKRDNRLFPQLLFGKGYQPKMLGYAVGFNIVKKYLTASKASTADGLSIPAETFLDAML
MGSDKIHHHHHHMSVRNFMAYHQLSYTFLNHQKLPLIIQPQAKAEGNIDVLKQFLKEENTLFKEQLLNYGAIILRGFHVNTAEQFLEVIRSSDLGPNYSYDFCPIPRTQIRENIYTSINIHPSFNLALHNEKSYDQDFPSHIFFNCIHAPQTGGDTALADGNKIWFSLPKLLQKKLQSKGILYRRHYYGSGIQYKIIRSIGKNSGCMTWMERFQTDDQNKVEVMLQQMGVQFRWIQGNGLIIEQLLPACRNHPISGKLVWFNQSNHANHYYNGTSDYIKSKINNTFSRFILLHKYFHPYIAFYGDGEPLSKQEADCINSAIQKNTVSTAWQPGDVMIVDNFSCLHGKTPHTGNRLILVGLTKYFD
MGSDKIHHHHHHMSVSSTIEWTEATWNPTTGCHKISPGCKNCYAERFAERWRGVAGHPYEQGFDVKTWHERLKMPLSWKKPRLIFVNSMSDLFLDDISEEFIKDVFNVMEEASWHQFQVLTKRPQRMLKIANSIKKWPSNIWAGVSIESQAWVWRSEILKEIPAKIRFLSCEPLLGSLTLSLDELHWIIVGGESGVGARPMNIEWVRDIREQCIQANVPFFFKQWGGIQKKKYGREIDGRTWDGFPETIVDKNTKQVSPVK
MGSDKIHHHHHHMSWEISGTYVGSCTCQLICPCPVDGLPTGPDGECRGLNVFHIASGKMDDTDLSGVDFAFANWFPSHLTAGGWKVGAVVDDAASDAQVRALGSILRGEAGGPFGDLAALYGEWLGLERAGVKFSGGDTPAGSVADRVVITFEPLPGPDGGVTTVKNAMYGFAPEFQIGKGTGHPDLFGLAFDGVYGETSDFSFASEMAEGAPKGRG
MGSDKIHHHHHHMSYSLQKSMVAKVVGLSLVMLLAACSSDQRYKRQVSGDESYLKAPAQHVLNTPAGMILPVQNGDFDIPPVTLNGAVGKELDIRPPVQPLALLNGSRTQTSGDTATLLLENSAQNSQIWSQVIRVLQDNAFTIANRQDASQTLTTDWISWPREDENVPYQGRYQISVQQQGYQVALIVKLLGLQLNGQPVTTSDQTQRYAGLMLNVLSNGLDSQATARENALANRTIGSLDVQSGADDTGLPLLIVRGPYTVVWDRLPVALDKIGMKVNDRSRPQGSVSVTYRAPSGGTWDDLGAKNPELPNGDYKLQVGDLDNRSSLQFIDSKGHTLTQSQNDALVAVFQAAFSK
MGSDKIHHHHHHMTAELLRLLENVLRVGVVTEIDVDEWRVRVSAGGLHTDWLRWDALRAGSFSVWIPPSVGEQVLLGCIGGNPETAVIIGSIYSAANPAPGSSSSELVIKAPDGATVRYDAAAGALEASGMKTARIVASVGVTLETPVVECTEHLVAKTFSFTEGGTMKGDVNHTGGAFKSNGVQADEHSHGNVLNGPGWSDGTR
MGSDKIHHHHHHMTATTATAPTMRGGGRNELPPHLDDNLLTPRFYTTEFDKAAKTDLDIARKDFEAMFKEMEADYNLKHFDRKASLERLSELSPEDKAIYESYLVRSVVSEFSGFLLFKEISNRFKKAGRQELGQFFTFLARDEARHAGFLGRALKAEGINVDLPNLGNKRAATFFPLSWVLYSLYLSEKIGYWRYILINRHLNDNPEKVCAPLFDFFEPWCQDENRHGDCINLMMRCWPGMTKGFRGKLLSRFFLWSVFLTHTLTVCERGDFYGLLGIDPVLFDEEVIIQTNNTSRNAFPWVYNFDDGKFLEMRVQILKAFRNWRESSGLAKPVALSKFVSLILRQFALPMQKTNAVRYG
MGSDKIHHHHHHMTCAFARTVESRFAELTPTAKRIASYMLANLDRLGLETADQIAQQTGTSGISVGRFLRSVGYRNLDDLKRELRGGADRPWMITDRLDEYRRTNGTNGTAGTQAAAIHSDDRALASSLDRELDAIRHVYRLAEEPVFAQVADRIAHADAVFILGIQSTRGISNAFSSYLEYLRPRVFYSDGQSGSYVDSLNSEFERPYCIVTDVRAYSRSARRYCQAAAERGQPFALVTDLYCPWAREWPADLLQVKTDVGQFWDSLAPLTCLFNLLITAVVDRLGPAIDRRVARNRELQHTFDQFES
MGSDKIHHHHHHMTDPFFLSDSGLLESYRAPKWLPGGNAQTIFPYFINLSPIISYRRERWEMDDGDFIDIDWLDGESDKPLVIMLHGLEGSSQSHYALSLMNLLQMLRWRGAVVHFRGCSGYSNRLPRAYHAGDSMEIDRMLRHIAHRNDSHEWNTPCYVVGVSLGGNALLKWLGEQGAQAARQIAGVVAVSVPLDLAAAGKVLDSGFNRVYTHHFLTTLKRKALEKNRQFPGLLNARAVAACRSLYEFDNLVTAPLHGFRDTDDYWRQSSSKPWLGSVQVPTLLINARNDPFLPESVLPQKSEVSSFVSLEFPQQGGHVGFIQGTFPGKLDWLPQRIIEFFSSLCGLDAIPG
MGSDKIHHHHHHMTDPRTTAFNGRVAHASLKGEIEAERYSEGRWMMVQQPIANILDKPRGARTSQLVFGERFLVLDTEDGFSFGQAERDGYVGYILSGALTGAEPATHWVISPATHLYPKAELKVPPDVCLYFGSQVKVTGEKDDFKRIHTGHFMPSQHLMPIKARFRDSVGIADLFLGTPYLWGGTSRWGIDCSGLVQACLLACGVECPRDTDQQEAALGEEIPSDEALKRGDLIFWKGHVGMMASDRMLLHANAHHMSTAYEPLKDAAARIEAKEYGPITSRKRIAMG
MGSDKIHHHHHHMTDVAKFGISRLDELLGGGLDRYTENLIIGRSGIGKTILAAHWAAEGARNDETVVYLSTTMNKKNCKAYLGRFPFMEDVYDKIKWRFIRVDPKFVLPLTREKIVEGLRATFGMDGKDIDRVVFDSCTDLELALADPVLYRRALTYMSDLSYDYEITSLWIEEAPMQGDWSSTKNIVDSVIFLNLLRTQEGYQRAMRILKKYRTRVPLEWIPYEITDEGVVIKDGYIVKRSYDYEYKRG
MGSDKIHHHHHHMTEITTLSQFLTTAKTQFQVYDLGRRVQHIDMLAFHQIESLATPYPYPIQGHAQFAIVFWDASQQHFIWFLKLALDEQGLLSPAPRSQFIEMVLSALGQDPTQPLSNEQQEHLANNPFSFTPSQEKLAVFNALVRKQLGQHASVQYEFAMQYLSGQIAPSQWQHIGIQGIADVCVRANELDHEAKLLTSFDSAAIEVQIALCQCLEHVQISPLLANKILNKLTAAEPEHKAYFLRALASNSELSQKALAHLHQGSNLDANTLISIAGRNWTVLKQELSRSIYLEALALQPQTFFNQIFADIVAIPSLRNLLLGELRNPNRSIQLSQAIGGLFKAASK
MGSDKIHHHHHHMTEIYEKYAHAAERMLHFVETRTTDQASSTMRVPVADYLDQGRFDLEIDRIFKRLPLMLALTIELPEVNDYKAMDVMGLPVLITRGRDGKARAFLNVCKHRAMHLAKEGKGNCKAFACQYHGWTYANDGKLMGIAEASTFGDVDRSTLNMTELPCDEAAGLIFVILTPGLPINAVEWMGGMYEDFAALKLETWYYHKSKAMKGANWKVAYDGYLEGYHFQAAHTNTVATRSPSNRASYEGFGPHIRLGFPQNTITRLHELPRDEWGRQENKGYDFIRMLFPNMSFFLAPEMGQLAQLFPGPQANQNTTVMNYIFPVKPETEEGLAALDQMCDFFFDVVEEEDYFLGLKVQNGLESGAMTHQTFGRNEPGNQFFHKWVAYYLDESGQTPMPVMKE
MGSDKIHHHHHHMTENKLIIGTAPDSWGVWFADDPKQTPWERFLDEVAESGYKWIELGPYGYLPNNPARLAEELKQRDLKVTAGTVFTAFHRGLDEWETAWEPARKVAELTAAMGGEHIVVIPAMWRDDVTGEAVESGQLTEKAWSDLFAGHNRLGKTLLEDFGLKQQFHSHADSHVGAQEDIESLLAATDSKYLNLCLDTGHAEYCGASSLELIKNYPDRIGYLHLKQINPDILKKVNEENMTWAAANLAGVMTEPPNGLPDLRAVIEAVEALNRPIFGIVEQDMYPVAFDVPMPIAKRTRNYLLSCGSRTAVN
MGSDKIHHHHHHMTEQITEIDTLVVGAGQAGVAMSEHLTRLDIPHLVLEKQGIAQAWRSGRWDSLVANGPAWHDRFPGMVFPDCPPDSFVGKEQVADYFAAYARSFNAPIRTGVEVYSAERLAGRPGFRIDTSQGVIEAQRIVAATGPFQRPVIPAIAPQSPAIQQLHSAHYFNPQQLPEGGVLVIGAGSSGVQIADELQRAGRAVWLSVGAHDRPPRRYRQRDFCWWLGVLGMWDAAANAPGKEHVTIAVSGARGGHTVDFRQLAHQGVTLVGQTRGFDGDKALFHPDLAENIRRGDASYLALLDAADAWVARNGMDLPEEPSAREFLPDPACVTDPLLSLNLAEAGIGTIIWATGYTTDYRWLKVNAFDDAQRPQHHRGVSTEPGVYFLGLPWLSRRGSTFIWGVWHDAKYIADQIAIQRQYQRYQPSC
MGSDKIHHHHHHMTETTLPPLIQQMLQPGFYPHEVTEPIQLIQTHVSSVLLTGEYAYKLKKPVNFGFLDFSTLEKRQHFCQEELRLNQRGAAELYLEVLPISLVGEQYTLGGTGEAVEYVLKMRQFPQDGLFSELFAQGKLTESHLEELGKVVAQYHAKTETNDYIRSFGEVPQVQAAFDENYQQTEKYIGGPQTQLQFDETKAYTERFFAEKQELFQRRIQNNYIRECHGDLHLRNICLWQDKILLFDCIEFNEPFRFVDVMFDVAYAVMDLDAQQRPDLSNAYLNTYLEQTGDWEGLEVLPIYLNRQSYVRAKVTSFLLDDPSVPATVKEEATKTASTYYKLAWEYTKPKQGKLILMSGLSGSGKSTTAKYLARQLDAIQIRSDAVRKHLGGISLWERGGDDLYTPEMTQKTYARLLNLGTILANQGYTVILDAKYDKQNLRQEAIAQAEKHHLPLQIIHCTAPIEVIQERLIKRTGDIADATVDLLSSQLQQTEPFTDQEKPYVQTWDTTQPPHVIGNR
MGSDKIHHHHHHMTFDEYEVAINSEFTLQGTLTKPKAGGKYAAVIIIAGSGEIDRDGTILPLKLESNIYKDLAHVMAKLGVVTLRFDKRGVGKSDGEFLKTGMWDLVNDIESTITYLKEQPFVDPENIILAGHSEGCMLATVVNARTPVNGLILLTGAAESLEEATKRQREIAYKELKEQKGIKGKLMRLLDVEKRGEKQMEKIKEKMMNTEKDTIKVGFKPMNAKWFREHFQHDIYKDLQQVTCPVLAIAGDKDFQANPEKAKRIGDYVQGDSEVHVIKDMDHSLKSFEGDFKALEFKKNYEEGAGKPLHPMLEEIIMNWISTNFILHKIPVSTLSEYEGDGKESNCL
MGSDKIHHHHHHMTFLFFQPSSNIIKPYALMDLDDTLFQTQRKIDAWELPTTEPENLVCATVNKQGEPLSFMSQRQAAFFNWLLASTELIAVTARDRLEIKRVKLLFNSWQVLTHGAVILTSDGEPLSTWQQHMYNALIPLQDKINQLTEWVNSYSKESDRTHNDLKLTPHTDTFIDSELTIYLAIKHTQKDHQALAELATQLPTLIPDFDAHFYVHVNANNLAILPHAVHKRHAVQFLLEQHLDHQRPSFGFGDSLADLPFLQLLDWYGMPNHGQLHTQQ
